Measurements reported in publication PMC3781594 (Circulation, 2013).
Read-outs that look alike come from different tables or passages of the source.

T1: recombinant CD74 ectodomain (sCD74 = CD74 73-232) (UniProt P04233-2 73-232)
T1 sequence (looked up): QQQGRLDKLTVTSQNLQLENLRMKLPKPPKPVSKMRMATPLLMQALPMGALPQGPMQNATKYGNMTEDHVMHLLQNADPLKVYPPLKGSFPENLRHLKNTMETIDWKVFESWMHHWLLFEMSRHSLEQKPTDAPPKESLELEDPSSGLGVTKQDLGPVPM

B1: biotinylated MIF (ligand, UniProt P14174 1-115, looked up)
chain: MPMFIVNTNVPRASVPDGFLSELTQQLAQATGKPPQYIAVHVVPDQLMAFGGSSEPCALCSLHSIGKIGGAQNRSYSKLLCGLLAERLRISPDRVYINYYDMNAANVGWNNSTFA
modifications: biotin (site not stated)
B2: human macrophage migration inhibitory factor (MIF) (ligand, UniProt P14174 1-115, looked up)
chain: B1 chain

Legend:
[1] = target: T1, recombinant CD74 ectodomain (sCD74 = …); experiment: ELISA
[2] = target: T1, recombinant CD74 ectodomain (sCD74 = …); experiment: SPR
[3] = target: T1, recombinant CD74 ectodomain (sCD74 = …); experiment: SPR; remark: listed apart in the source

Row | Binder | fold increase of MIF bound with 500 nM MIF20 against MIF without agonist [1] [fold] | Kd [2] [nM] | Kd [3] [nM]
1 | B1 | ~2.5 |  | 
2 | B2 |  | 2.25 | 6.06
